# In US20230118024A1 (Chugai, published 2023):
# Changes are numbered by the printed parent chain.
# T1: HLA-DQ2.5 on Ba/F3 cells (not in the form of a complex with a linked peptide) (human, UniProt P01909 24-254; P01920 33-261)
# T1 construct: also called Ba/F3-HLA-DQ2.5; No peptide
# T1 MHC II alpha: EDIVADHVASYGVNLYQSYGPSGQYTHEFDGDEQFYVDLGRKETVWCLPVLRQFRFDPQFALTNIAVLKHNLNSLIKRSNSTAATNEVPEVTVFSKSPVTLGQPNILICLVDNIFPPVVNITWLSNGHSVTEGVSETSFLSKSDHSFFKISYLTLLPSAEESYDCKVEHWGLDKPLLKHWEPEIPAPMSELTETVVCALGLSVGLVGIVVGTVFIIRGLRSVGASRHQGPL
# T1 MHC II beta: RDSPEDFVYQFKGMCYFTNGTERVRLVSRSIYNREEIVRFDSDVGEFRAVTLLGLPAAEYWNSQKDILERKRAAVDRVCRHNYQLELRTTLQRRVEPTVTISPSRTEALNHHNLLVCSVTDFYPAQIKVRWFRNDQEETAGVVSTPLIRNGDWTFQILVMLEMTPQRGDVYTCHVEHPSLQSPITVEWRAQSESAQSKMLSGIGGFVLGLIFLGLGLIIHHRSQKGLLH
# T2: HLA-DQ8 on Ba/F3 cells (human, UniProt P01909 24-254; P01920 33-261)
# T2 construct: also called Ba/F3-HLA-DQ8
# T2 MHC II alpha: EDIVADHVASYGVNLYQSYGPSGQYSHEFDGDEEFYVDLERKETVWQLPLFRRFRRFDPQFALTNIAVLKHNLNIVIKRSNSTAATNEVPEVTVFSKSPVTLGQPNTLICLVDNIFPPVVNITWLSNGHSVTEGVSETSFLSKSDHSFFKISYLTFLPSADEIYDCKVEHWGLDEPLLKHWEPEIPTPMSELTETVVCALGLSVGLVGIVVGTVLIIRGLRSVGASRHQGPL
# T2 MHC II beta: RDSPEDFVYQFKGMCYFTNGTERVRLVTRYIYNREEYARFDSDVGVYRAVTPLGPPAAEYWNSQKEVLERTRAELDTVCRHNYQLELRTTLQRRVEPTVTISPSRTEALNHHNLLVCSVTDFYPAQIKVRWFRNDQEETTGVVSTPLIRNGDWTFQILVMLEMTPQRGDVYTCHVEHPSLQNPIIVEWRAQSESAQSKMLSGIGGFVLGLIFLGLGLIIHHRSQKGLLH
# T3: HLA-DQ7.3 on Ba/F3 cells (human, UniProt P01909 24-254; P01920 33-261)
# T3 construct: also called Ba/F3-HLA-DQ7.3
# T3 MHC II alpha: T2 MHC II alpha with A160D
# T3 MHC II beta: T2 MHC II beta with G13A, L26Y, G45E, A57D, R167H, I185T
# T4: HLA-DQ2.5 on HLA-DQ2.5 positive PBMC-B cells (human, UniProt P01909 24-254; P01920 33-261)
# T4 construct: also called DQ2.5 + PBMC; HLA-DQ2.5+PBMC B cell
# T4 MHC II alpha: T1 MHC II alpha
# T4 MHC II beta: T1 MHC II beta
# T5: HLA-DR on Ba/F3 cells (human, UniProt P01903 26-216; P79483 30-227, limits assumed)
# T5 construct: whole, on cells; also called Ba/F3-HLA-DR
# T5 MHC II alpha: not shown
# T5 MHC II beta: not shown
# T6: HLA-DQ2.2 on Ba/F3 cells (human, UniProt P01909 24-254; P01920 33-261)
# T6 construct: also called Ba/F3-HLA-DQ2.2
# T6 MHC II alpha: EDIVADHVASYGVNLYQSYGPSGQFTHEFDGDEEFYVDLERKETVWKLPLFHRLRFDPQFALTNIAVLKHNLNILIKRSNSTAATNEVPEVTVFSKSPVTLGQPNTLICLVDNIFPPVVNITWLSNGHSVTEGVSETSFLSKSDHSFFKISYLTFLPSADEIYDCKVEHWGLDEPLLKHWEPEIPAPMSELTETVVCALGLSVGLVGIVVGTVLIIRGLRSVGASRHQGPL
# T6 MHC II beta: T1 MHC II beta with D135G
# B1: IC17 (antibody, V domains shown)
# VH: QVQLQQSGPQLVRPGASVNISCKASGYSFTSYWMHWVNQRPGQGLEWIGMIDPSYSETRLNQKFKDKATLTVDKSSSTAYMQLSSPTSEDSAVYYCALYGNYFDYWGQGTTLTVSS
# VL: DIQMTQSSSSFSVSLGDRVTITCKASEDIYNRLAWYQQKPGNAPRLLISGATSLETGVPSRFSGSGSGKDYTLSITSLQTEDVATYYCQQYWSTPYTFGGGTKLEVK
# notes: also called IC17H; IC17L
# B2: DQN0089ff (antibody, V domains shown)
# VH: QEQVVEYGGDLVQPEGSLTLTCKASGLDFSSTYYMCWVRQAPGKGLEWIGCIYGGSSDSTYYASWAKGRFTISKTSPTTVTLQMTSLTAADTATHFCATYDYGAVGYDLWGPGTLVTVSS
# VL: EVVVTQTPASVEVAVGGTVTIKCQASQNISPYLSWYQQKPGQPPKLLIYKASTLASGVSSRFKGSGSGTQFTLTISDLECADAATYYCQNNYGVSINYGHTFGGGTKVEIK
# notes: also called DQN0089Hf; DQN0089Lf
# Experiments:
# [1] = molecular target: T1, HLA-DQ2.5 on Ba/F3 cells (not in the …); experiment: FACS, Ba/F3 cells expressing the target, goat F(ab')2 anti-human IgG-PE (Example 7)
# HLA-DQ6.3 on Ba/F3 cells = molecular target: T7, HLA-DQ6.3 on Ba/F3 cells (human, UniProt P01920 33-261); experiment: FACS, Ba/F3 cells expressing the target, goat F(ab')2 anti-human IgG-PE (Example 4.2)
# T7 construct: also called BaF3-HLA-DQ6.3
# HLA-DQ8 on Ba/F3 cells = molecular target: T2, HLA-DQ8 on Ba/F3 cells; experiment: FACS, Ba/F3 cells expressing the target, goat F(ab')2 anti-human IgG-PE (Example 10)
# HLA-DP on Ba/F3 cells [2] = molecular target: T8, HLA-DP on Ba/F3 cells (human, UniProt P20036 29-222; P04440 30-225, limits assumed); experiment: as above
# T8 construct: whole, on cells; also called Ba/F3-HLA-DP
# T8 sequence (P20036 29-222 limits assumed, chain 1 of 4, other chains not shown): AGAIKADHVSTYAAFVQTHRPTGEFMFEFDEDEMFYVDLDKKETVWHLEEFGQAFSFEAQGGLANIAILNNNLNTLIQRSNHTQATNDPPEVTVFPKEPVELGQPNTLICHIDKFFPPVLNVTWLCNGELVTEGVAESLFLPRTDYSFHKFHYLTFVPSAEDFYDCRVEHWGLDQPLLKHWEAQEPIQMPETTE
# T8 sequence (P04440 30-225 limits assumed, chain 2 of 4, other chains not shown): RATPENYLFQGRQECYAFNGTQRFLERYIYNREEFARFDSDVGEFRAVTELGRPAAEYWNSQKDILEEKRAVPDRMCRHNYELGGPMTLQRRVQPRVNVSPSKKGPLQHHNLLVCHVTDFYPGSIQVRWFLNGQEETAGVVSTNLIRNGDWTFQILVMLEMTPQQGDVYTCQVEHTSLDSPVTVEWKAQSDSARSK
# HLA-DQ7.3 on Ba/F3 cells = molecular target: T3, HLA-DQ7.3 on Ba/F3 cells; experiment: FACS, Ba/F3 cells expressing the target, goat F(ab')2 anti-human IgG-PE (Example 4.2)
# HLA-DQ5.1 on Ba/F3 cells = molecular target: T9, HLA-DQ5.1 on Ba/F3 cells (human); experiment: FACS, Ba/F3 cells expressing the target, goat F(ab')2 anti-human IgG-PE (Example 10)
# T9 construct: also called BaF3-HLA-DQ5.1
# [3] = molecular target: T4, HLA-DQ2.5 on HLA-DQ2.5 positive PBMC-B …; experiment: FACS, HLA-DQ2.5 positive PBMC with FcR blocking reagent, anti-CD19 stain, Alexa Fluor 555 anti-human IgG Fc antibody (Example 8)
# HLA-DR on Ba/F3 cells [4] = molecular target: T5, HLA-DR on Ba/F3 cells; experiment: FACS, Ba/F3 cells expressing the target, goat F(ab')2 anti-human IgG-PE (Example 10)
# HLA-DQ2.2 on Ba/F3 cells = molecular target: T6, HLA-DQ2.2 on Ba/F3 cells; experiment: FACS, Ba/F3 cells expressing the target, goat F(ab')2 anti-human IgG-PE (Example 9)
# HLA-DP on Ba/F3 cells [5] = molecular target: T8, HLA-DP on Ba/F3 cells; experiment: FACS, FIG. 6
# HLA-DR on Ba/F3 cells [6] = molecular target: T5, HLA-DR on Ba/F3 cells; experiment: FACS, FIG. 7
Binder,binding result [1],binding result (HLA-DQ6.3 on Ba/F3 cells),binding result (HLA-DQ8 on Ba/F3 cells),binding result (HLA-DP on Ba/F3 cells [2]),binding result (HLA-DQ7.3 on Ba/F3 cells),binding result (HLA-DQ5.1 on Ba/F3 cells),binding result [3],binding result (HLA-DR on Ba/F3 cells [4]),binding result (HLA-DQ2.2 on Ba/F3 cells),binding result (HLA-DP on Ba/F3 cells [5]),binding result (HLA-DR on Ba/F3 cells [6])
B1,no binding (tested: 10 microgram/mL),no binding (tested: 20 microgram/mL),no binding (tested: 20 microgram/mL),no binding (tested: 20 microgram/mL),no binding (tested: 20 microgram/mL),no binding (tested: 20 microgram/mL),no binding (tested: 10 microgram/mL),no binding (tested: 20 microgram/mL),no binding (tested: 10 microgram/mL),,
B2,,,,,,,,,,binds,binds
